Data from IntAct's records for PubMed 10837255.

B1: Spindle assembly checkpoint serine/threonine-protein kinase BUB1 (Saccharomyces cerevisiae), P41695 (parent)
chain: MNLDLGSTVRGYESDKDTFPQSKGVSSSQKEQHSQLNQTKIAYEQRLLNDLEDMDDPLDLFLDYMIWISTSYIEVDSESGQEVLRSTMERCLIYIQDMETYRNDPRFLKIWIWYINLFLSNNFHESENTFKYMFNKGIGTKLSLFYEEFSKLLENAQFFLEAKVLLELGAENNCRPYNRLLRSLSNYEDRLREMNIVENQNSVPDSRERLKGRLIYRTAPFFIRKFLTSSLMTDDKENRANLNSNVGVGKSAPNVYQDSIVVADFKSETERLNLNSSKQPSNQRLKNGNKKTSIYADQKQSNNPVYKLINTPGRKPERIVFNFNLIYPENDEEFNTEEILAMIKGLYKVQRRGKKHTEDYTSDKNRKKRKLDVLVERRQDLPSSQPPVVPKSTRIEVFKDDDNPSQSTHHKNTQVQVQTTTSILPLKPVVDGNLAHETPVKPSLTSNASRSPTVTAFSKDAINEVFSMFNQHYSTPGALLDGDDTTTSKFNVFENFTQEFTAKNIEDLTEVKDPKQETVSQQTTSTNETNDRYERLSNSSTRPEKADYMTPIKETTETDVVPIIQTPKEQIRTEDKKSGDNTETQTQLTSTTIQSSPFLTQPEPQAEKLLQTAEHSEKSKEHYPTIIPPFTKIKNQPPVIIENPLSNNLRAKFLSEISPPLFQYNTFYNYNQELKMSSLLKKIHRVSRNENKNPIVDFKKTGDLYCIRGELGEGGYATVYLAESSQGHLRALKVEKPASVWEYYIMSQVEFRLRKSTILKSIINASALHLFLDESYLVLNYASQGTVLDLINLQREKAIDGNGIMDEYLCMFITVELMKVLEKIHEVGIIHGDLKPDNCMIRLEKPGEPLGAHYMRNGEDGWENKGIYLIDFGRSFDMTLLPPGTKFKSNWKADQQDCWEMRAGKPWSYEADYYGLAGVIHSMLFGKFIETIQLQNGRCKLKNPFKRYWKKEIWGVIFDLLLNSGQASNQALPMTEKIVEIRNLIESHLEQHAENHLRNVILSIEEELSHFQYKGKPSRRF
partner: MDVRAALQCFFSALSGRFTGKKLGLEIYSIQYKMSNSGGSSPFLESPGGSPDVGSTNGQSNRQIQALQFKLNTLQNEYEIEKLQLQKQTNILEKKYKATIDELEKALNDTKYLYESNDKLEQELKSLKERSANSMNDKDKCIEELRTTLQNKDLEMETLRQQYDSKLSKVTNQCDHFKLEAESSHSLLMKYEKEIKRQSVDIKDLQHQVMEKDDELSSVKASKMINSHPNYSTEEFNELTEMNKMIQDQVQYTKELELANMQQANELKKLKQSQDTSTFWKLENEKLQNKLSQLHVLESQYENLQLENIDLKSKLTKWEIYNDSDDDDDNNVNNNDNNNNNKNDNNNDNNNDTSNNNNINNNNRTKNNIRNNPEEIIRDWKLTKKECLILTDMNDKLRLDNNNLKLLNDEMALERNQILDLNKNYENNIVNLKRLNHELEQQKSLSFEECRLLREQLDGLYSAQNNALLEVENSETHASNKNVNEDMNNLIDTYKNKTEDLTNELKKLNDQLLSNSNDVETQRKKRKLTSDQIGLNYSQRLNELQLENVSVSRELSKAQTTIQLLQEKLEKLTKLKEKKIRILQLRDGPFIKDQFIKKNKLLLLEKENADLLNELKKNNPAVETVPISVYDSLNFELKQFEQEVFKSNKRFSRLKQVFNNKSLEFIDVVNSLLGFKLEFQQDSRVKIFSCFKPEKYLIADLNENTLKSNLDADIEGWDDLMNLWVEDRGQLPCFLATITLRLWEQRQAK

Variants of: B1
Conditions: with mad1_yeast MAD1, P40957
For K733R, the “effect of a mutation on the interaction” value was “decreasing interaction”.
